Experimental data as given in the domain aggregation screens of Martell et al. (2025).

Test: soluble fraction after stress (log2 fold change); higher = more stays soluble; pooled small domains, quantitative proteomics
Settings: stress: 75 degC
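Further: 20 min heating vs room temperature control held 20 min.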

HMNTRWDDAAQTWLRKVIEQQPVLVQISAAKRLRDQAEQRAREAGEEVVTEQHVKRAGLELGFGEP
soluble fraction (log2): 0.0588

HMNTSITVPSLKGLSQEAATLKMERLGLHVEVSDTGFVRSLAFGTVLQQSIAPGEKVKPGRLVYITINSD
soluble fraction (log2): -2.2

HMNTVAGAISDLSFKVRGSEDIEKLNRLKALSIQAKLDVQGQEEAERLISELEAKYGSLGMTVDKVSGKIA
soluble fraction (log2): 0.0323

HMNTYEIIGGDNRARGPVTGEELSQWIREGRASGHTMARVSDGEHWQPLGSFPEFVGPLQGLPW
soluble fraction (log2): 0.0698

HMNTYVLPDALKSQLSVEDTGMLTKQLQALPETLAEGVLDSLSQMLSKNTLQNPVGWMLAVMKRAREGNFN
soluble fraction (log2): -0.305

HMNVAVSEADAKAAALERVSGATEADIRMELELDDGYYVYEGDIIYQQKEYEFEIDAQTGKFLKWSEER
soluble fraction (log2): -0.121

HMNVDLLEARIPIQSHGMRLDQVVAELFPDYSRNRLAAWIKEGRLTVDGKTMKPRDRALASAHVVLEVV
soluble fraction (log2): -0.3

HMNVGKYILTLAAKEGYSQSDVARRTGISRQMLSYIIAGERKLTLPQALKIESLLSLKTGTLILMQDED
soluble fraction (log2): -3.35

HMNVNEIREMYPEGTQIVLTEMRGENQMPYGLKGTVKFVDDAGQIHMKWENGSSLALNINEDTFEKVE
soluble fraction (log2): 0.91

HMNVPATAEAYEALLADAESVGKSLWGHEAKRFAAEQALLSAGLREVIQVDPDKARELALRLRGLLDEYRG
soluble fraction (log2): 0.19

HMNVQGFVFDLAEPLDKVPSIEGFPLKLEDPLTLVAAVNKDRSINALFAELSKLNIKIKSMRNE
soluble fraction (log2): -0.0601

HMNVVSIEHIRTHLQNHLSLIGRSIEESFNEAKVIAFVASLFLTHRGYASVSQDMGTNGEIYLQDLW
soluble fraction (log2): -0.465

HMNVWGLSERELEATRLLIEGFSSKEASARMGISPSTVRSLWGRARAKMGVDSIEDARELVA
soluble fraction (log2): -0.415

HMNYAVTAARRESILNAALEIFGKSGYNGSSVKQVALAVGMTEAGVLHHFGTKSNLLIEVLRV
soluble fraction (log2): 0.396

HMNYLDVNIPVTSAVWMGKQLPEMGTLIYLTPDKDVEGMLFIKQATKDKPDGEYIEAKVLGYKEGRVLFDF
soluble fraction (log2): -0.964

HMPAEEVPLYKAVVVTTPPNRLRVRFSPAGDFKRWLQSGEEVDVYQELGDWRRIEPNGWSSAEWLQRVG
soluble fraction (log2): -0.465

HMPAGWIPARIRLADYPQLRSLAWHVQGIDTLTPTEALDIYERNARHLDAQAMSAQEQDLLASLRLALS
soluble fraction (log2): -0.888

HMPALPGNELLRNLMLEHGLKQVDLAEIGSQGVVSEILSGKRRINRRHADLLARRFSLPAELFSR
soluble fraction (log2): -0.217

HMPANLTPDYFKAEQWYRSASTNEEKMLALEQMLAVMPKHKGTEHLQADLKRKLSQLKDASAQ
soluble fraction (log2): 0.19

HMPAPAPDIPYHSRVSVRRADGFYEGTWTNTAPILDYTGRWMVNVSLGGKRVFVPVEEVVVH
soluble fraction (log2): -1.05

HMPAPKPSGALSLKDEPLYAASDSKRRSGTVSGTYYRWDGENVNGRMRITNKQENIGKAGQVTGWITAH
soluble fraction (log2): 0.0409

HMPASTSIPYSDFISRVESGDVQEAKIGESAITGTYKDGSQFKTVKPPTLDTNLMPTLIQNKVNVVGVEP
soluble fraction (log2): 0.176

HMPAVGGVVKGAVVSVGRNEVRLDIGGLAIGIIRGPELDKHVDLRIGDEVEATVITLDNEFGELELSL
soluble fraction (log2): -1.37

HMPAVTEQTKTNLRRAFWQLYEQKPIQKITVKQITDLAGYNRGTFYLYFKDVYDLLDDIENK
soluble fraction (log2): -1.09

HMPAVTEQTRANLRTAFWSLYREKPTSKITVREITDRAGYNRATFYLYYRDVYDLFEQIEQEIL
soluble fraction (log2): -2.37

HMPDAGQRRYLELVTALAGARSLTIDDLERRAIRFAEWGNGYSGRTARQFIDTLLQDRGVAEEL
soluble fraction (log2): -0.731

HMPDAIPLETIIKNVNVLAGFLINSKTFTEDDIVMAYNNIMKIKGDHTDEKTLTNDVYTLLTEMN
soluble fraction (log2): -0.714

HMPDIFDRGTAHITDAASGVAITFTRTFRIPPEVTMTHKGGTVVAIARLVGSITTGGFTAVLENT
soluble fraction (log2): 0.0362

HMPDLQDTLYRLVPEDGSAIGNQSLREKFLSTAKDASDADFEAARDGLVEQGKLTKGKGRGGSVRRAEP
soluble fraction (log2): 0.551

HMPDLSMLDEVLDEYRSQAGSLVTVLQKAQDLYGYLPLTILRHIAEEMNIKPAQVYGVATFYTQFRL
soluble fraction (log2): 0.0378

HMPDRQKDIQNWQQIAETLLNMLDKYVAALETGKTGLAEAYKAIFAETLRRLDDRLDPEQFLP
soluble fraction (log2): -1.91

HMPDTETLTPRQRQILDLVQELGFTTIETLAERFGVSAQTVRREIIRLQAGNFLQRFHGGAGLASGGIRSA
soluble fraction (log2): -1.24

HMPDYAFEGVVIKLTHRDYDRWKAGFPDVDLPPYLTARDAWLSEQTPADRKNWFVSTATDLRNFQKREAI
soluble fraction (log2): -1.26

HMPEDQISYTDLIKQINDGNVEKIKMTVGSTTIKVNLKEQEEPKTAIVPSTQAFIELVQEKVQDGNEITLI
soluble fraction (log2): 0.164

HMPEITPAMIKALLSSLSEELAFASVTKVYAVLHNLFKAALLDDTIDRNPMDKVPRPRKSKDAAL
soluble fraction (log2): -0.576

HMPELPEVETSRRGIEPHLVGATILHAVVRNGRLRWPVSEEIYRLSDQPVLSVQRRAKYLLLELQA
soluble fraction (log2): 0.0647

HMPELSPEERAIIETLQKNNDLQVNIIAIKTGMDMGSLSAVLFDLEMKGLVKLLAGGMYHLI
soluble fraction (log2): -0.66

HMPEPAPALPAKTRVSIRRETGGIIWHEGAWTISPPIRAYDGRWYVAVTTARKGIEFVPVSSVIRS
soluble fraction (log2): -2.18

HMPEPMKLSDLPPELWQRVSDLFDEVIDLPETDRIPYIRNLWGSEPLVAKELMALLVAAANVD
soluble fraction (log2): -0.452

HMPESFSEMQKRTGVGEFSDDALSAKYVDSIDADVMSLDEYIMKVRGISLDDLEAERALRAR
soluble fraction (log2): 0.0969

HMPETAQLTDIQVSRSQAHTGIFSLHYYLTGTDSRGERVRLEISGDDYTRLSGSSSVTVEYYRHTGRIVRY
soluble fraction (log2): -1.16

HMPETYVVFSKDGYANLRRGTTINSEILDVLDNGEYVTKLDEVGEWYRVEYADFDGGYIHKSQLKNI
soluble fraction (log2): -0.288

HMPFDRTVQLAGARARQLQALPRYREVLRLLDEGMNPREIGQVLDPPVTRQRASALIQQAKRAQMLGLFED
soluble fraction (log2): -1.04

HMPFNLKSLADRLSHVFPGLVKMRDDIGAIIVMDKIKVTEHGVTEGGGLAADRVRAVYNEFIKEY
soluble fraction (log2): -0.247

HMPFSLHGVNEGSRNDNAARIAGYLISKNLNLDFVRIFLHNWNRDNKPPLPQQEIDSVVDNVKKTHDRKN
soluble fraction (log2): -2.09

HMPGEATVPSVIGMTKAEAKAKLQASGFELGYSEFVASDKPKGEIVEQDPGAGETAKGGTEVNVKISDGS
soluble fraction (log2): 0.0718

HMPGLDTTILSDILSLKKELPSRSAAKILIMLILAKRIEEGSLNLRTINRILNQYGYTRESLL
soluble fraction (log2): 0.144

HMPGLQSVTPAELKIGMYVILPLAWDEHPFLKNHFLIQSEAQINKIRELGTKGIQIDLSKSHP
soluble fraction (log2): -1.9

HMPGMLVVYVTGAVRQPGRMVTLAAGSRVSDAIDAAGGLADDADAQALNLSARLNDGDLVHVPSALD
soluble fraction (log2): -0.264

HMPHILEITSSKILDELQDEKKMVYFHFEKQSNQYVYRLIFNSKNELMEFKKSLEKNSSILDVRADM
soluble fraction (log2): -1.81

HMPHITDAEWEVMRVVWANHHVTSKEVISILEDKMNWKATTIKTLLGRLVEKGALSTEQDGKKFIYTAR
soluble fraction (log2): -1.6

HMPHTDATDKQIIALILETLKDGQKHSVSEMTFPGIPREKTAQLLHQMIEEETVRIQNGVLFLPH
soluble fraction (log2): 0.00795

HMPIDNTLLSRITSLGVSTTEAEKLISKHGEEALKANLEVVEERLSKPNLPLLDSPAAYLKTALKNG
soluble fraction (log2): 0.415

HMPIEQVEVPNLTNMTREEAESTLTSLNLKAQVHEEANEADEGKVFKQGTNTGEMVDEGSTIEIWVS
soluble fraction (log2): -0.549

HMPIHAGERLTLRLAGEGREAGQAIGYLEDGTLVIVERARHLIGQDVTVEVTRTLQTAGGRLVFAHLVE
soluble fraction (log2): -1.1

HMPKDLEKRAAILAAAKHLFPVHGFEGTSMDAIAALANVSKLTVYSHFKDKESLFTEAIREK
soluble fraction (log2): -0.0647

HMPKDMAKRASILTAASKLFVQHGYGGVSMDQIAAEAGVSKLTVYSHYGDKDSLFAAAVQAH
soluble fraction (log2): -0.617

HMPKELAPYDILARYYLTVNNSKQSIALLEQYLDKAGSAPAALKAKLLLAGILYPSGNKERAEKLVEEVIK
soluble fraction (log2): -0.463

HMPKETFLNLDEEKRQAIINVLLKNFSEQHISQVKVSAIVSGIGMSRGAFYKYFEDLEDAYRFTISYFSA
soluble fraction (log2): 0.147

HMPKLTKEEIQFIDNYLKNSGVEYIDTRAEVVDHVASEIESRLSANNTTNFYEEFKVYMVQHKETLLK
soluble fraction (log2): -0.21

HMPKLVGEVMQTLDALRREKGLSLLLVEQNARAALGVVDRVYVLERGRVVFEGSAKEAMEDQDVMEFYLG
soluble fraction (log2): 0.0465

HMPKRSKDEAELEFLEMLRDNQVDSTWSFGKIISQLGSTDPRYWMVDDDPLWKRQIFEKYLSNR
soluble fraction (log2): -0.228

HMPLDISDDSKAVLKLLKNDSNELNTVKSASGLSNKKWDKTIKELTKNKIVSVSKTEDGLYIHLI
soluble fraction (log2): 0.438

HMPLDYQELRNISPQAARQAILQILKANKGNVSQTARMLGITRKTVYKAMAKREAGNLDDGSRAPK
soluble fraction (log2): -1.41

HMPLLELPDDFYPAWKPKTIYVQGQRIMLDGVAFEAKWWTQGDNPASGQADPGSSPWRTLTQEEIAKLLE
soluble fraction (log2): -1.52

HMPLLKIGAQGHDVRVVQEALQRAGYAIEGVTGIFDEATREAVLAFQRDQQLTESGTVDRATWHALRR
soluble fraction (log2): -0.0683

HMPLLSPRQLDVLSLAAGGLSDAQIAGRLVLSESTVRVHFHHIIEKLGVTDRAGAIAWYEQSRS
soluble fraction (log2): -2.05

HMPLNAFDVAGYRLGYGGGYFDRTLAALSPRPLAVGVGFEINRLESIRPEAHDQRLDWIVTENGAFRPA
soluble fraction (log2): -1.58

HMPLNAHIVGRGKRDRRGKRGAPYSIVLELGRDENGKRIQKWYSGYPTKAAAEEDKIRMLRELQTGEYVPQ
soluble fraction (log2): -0.889

HMPLPFSPVMFVGTKSGAQTDLDGNYKIETYYSSDSLKVVVLGYAPLAKKVKQGTTSVVNFELSAAS
soluble fraction (log2): 0.161

HMPLPLYVQIKESLRGQIFDGTYGEHERLPSENDLMSSFGVSRITVRQALSDLEKEELIFKVPGKGAFVSR
soluble fraction (log2): -1.5

HMPLQKNRPKIKPQKVVFLFSVEWMWSPAHNRIDSYFINIKPSRYYLWNSFFDRHSFSDYWDFIGYTEN
soluble fraction (log2): 0.1

HMPLSDAEKAAAIATQAKERALKLSPEMISYLLRHASRDMRTLSMLVVALDQYTLEQKRPVTLPLLRELLS
soluble fraction (log2): -0.0668

HMPMIQHFHRMISAALGISEKQIVQTLGLLNDGATIPFISRYRKEVTGGLDEVQIESIKTHYEKLNEIAK
soluble fraction (log2): -2.33

HMPMPQDEVSYALGLSIGQNFKASGIKAITSEDFIAGLQDALAEREPQMTTERAREVINQLFMRLQQEESE
soluble fraction (log2): 0.323

HMPMTDYQLIRSNRRTIALQITRDARVVVRAPLYASEADIRRFVESHRAWIESHLDRQRARTD
soluble fraction (log2): -3.25

HMPMTRILFLPDDRTILQFDSAEPAEDLVSAVNAGRWLPPEPYRSGFGLGLPENRLRASRQGALVVVMLS
soluble fraction (log2): -0.984
